Reference: patent US5532348

Experiments:
[1] = molecular target: HPV16 E6, wheat germ extract translated (human papillomavirus type 16) (UniProt P03126)
[2] = molecular target: HPV16 E6, wheat germ extract translated (human papillomavirus type 16) (UniProt P03126); remark: listed apart in the source

Substance: GST-E6-AP fusion protein, amino-terminal portion (amino acids 213 to 489 of SEQ ID NO:1)
- percent of the input 35S-labeled HPV16 E6 bound [1]: 50%

Substance: GST-E6-AP fusion protein with amino acids 371 to 440 of SEQ ID NO:1 (SEQ ID NO:2)
- percent of the input 35S-labeled HPV16 E6 bound [1]: 50%

Substance: synthetic peptide consisting of the 18 mer region, amino acids 391 to 408 of SEQ ID NO:1 (SEQ ID NO:3)
- molar excess for fifty percent binding competition [2]: 5000
